Data published in FireProtDB (doi:10.1021/bi00485a005).

Conditions: Aspergillus oryzae (strain ATCC 42149 / RIB 40), 25 °C, Urea, Fluorescence, NaCl 0.2 M, whole UniProt chain shown

B1: Guanyl-specific ribonuclease T1 wild type, P00651 (protein)
chain: MMYSKLLTLTTLLLPTALALPSLVERACDYTCGSNCYSSSDVSTAQAAGYQLHEDGETVGSNSYPHKYNNYEGFDFSVSSPYYEWPILSSGDVYSGGSPGADRVVFNENNQLAGVITHTGASGNNFVECT
With B1 the denaturant m value (pH 6.02, MES 30 mM) was 1.25 kcal/mol/M, the “denaturant midpoint (higher = more stable)” value (pH 6.02, MES 30 mM) was 6.58 M and the unfolding free energy (pH 6.02, MES 30 mM) was 8.24 kcal/mol. The denaturant m value (pH 8.02, HEPPSO 30 mM) was 1.35 kcal/mol/M, the “denaturant midpoint (higher = more stable)” value (pH 8.02, HEPPSO 30 mM) was 4.38 M and the unfolding free energy (pH 8.02, HEPPSO 30 mM) was 5.92 kcal/mol.
